# In patent US11554097B2, “Recombinant production of hybrid lipid-biopolymer materials that self-assemble and encapsulate agents” (Duke University, priority 2017, dated 2023):
# Marks after values point to notes of the source that are not given here.
# What was measured:
# Type in all cases: physicochemical
# [1] = Cryo-TEM imaging of self-assembled structures; conditions: PBS, filtered
# Protocol: Cryo-transmission electron microscopy (TEM) experiments were performed at Duke University's Shared Materials Instrumentation Facility and at Thermo Fisher Scientific (Formerly FEI). Lacey holey carbon grids (Ted Pella, Redding, Calif.) were glow discharged in a PELCO EasiGlow Cleaning System (Ted Pella, Redding, Calif.). After filtering the samples, a 3 μL drop (1 mg/mL of each construct) at 25° C. (below the Tt for M-ELP constructs) was deposited onto the grid, blotted for 3 s with an offset of −3 mm, and vitrified in liquid ethane using the Vitrobot Mark III (FEI, Eindhoven, Netherlands). The sample chamber was maintained at 100% relative humidity to prevent sample evaporation. Grids were transferred to a Gatan 626 cryoholder (Gatan, Pleasanton, Calif.) and imaged with an FEI Tecnai G^2 Twin TEM (FEI, Eindhoven, Netherlands), which was operated at 80 keV.
# [2] = Dynamic and static light scattering of self-assembled M-ELPs; conditions: for Hydrodynamic Radius, Day 0, Rh: Day 0, freshly filtered; for Hydrodynamic Radius, Day 0, Rh / Second Virial Coefficient A2 / Shape Factor, ρ, Rg/Rh: PBS; for hydrodynamic radius (Rh) by DLS: filtered samples in PBS at 25° C.; for Second Virial Coefficient A2 / Shape Factor, ρ, Rg/Rh: full Zimm plots; for Aggregation Number, Nagg, MWparticle/Munimer: partial Zimm plots, Day 0
# Protocol: Characterization of myristoylated and non-myristoylated ELPs: Dynamic light scattering (DLS) studies were carried out to investigate the self-assembly of various myristoylated ELPs in aqueous solution. Prior to analysis, samples were prepared in PBS at a concentration of 50 μM, and filtered through a 0.22 μm polyvinylidene fluoride membrane (Durapore) directly into a quartz DLS cell. DLS experiments were conducted in a temperature-controlled DynaPro Microsampler (Wyatt Technologies). Measurements were obtained over a temperature range of 15 to 20° C. using 1° C. steps and at 25° C. 18 acquisitions of 5 s each were collected for every temperature point. Autocorrelation intensities at 15° C. were fitted using the regularization model and then depicted as a population size distribution histogram (FIG. 13) and intensity size distribution (FIG. 14) using Wyatt Dynamics software.
# Static light scattering (SLS) studies were carried out to quantify the Rg, Rh, and Nagg of myristoylated ELPs in aqueous solution. Samples were prepared in PBS at concentration ranging from 0.5-5 mg/mL and filtered through a 0.22 μm polyvinylidene fluoride membrane (Durapore) directly into a 10 mm, disposable borosilicate glass tube (Fisher Scientific). Experiments were performed using an ALV/CGS-3 goniometer system (Germany). For M-ELP90A,120 and M-ELP90A,80, as well as for M-ELP90A,40 and M-ELP100V,40 at early time points, measurements were obtained at 25° C. for angles between 30 and 150° C. and made at 5° C. increments with 3 runs of 10 s. Smaller angles (20-45° C.) were used to measure the 40-mer ELPs at later time points, after they had matured to their larger rod-like shape. Full Zimm plots were created by conducting SLS for each construct at different concentrations ranging from 25 μM to 100 μM. These Zimm plots were created using SLS data and ALVStat software after the refractive index increment (dn/dc) was calculated (FIG. 15). These plots provided the second virial coefficient and Rg and from which shape factor was calculated (TABLE 1). Partial Zimm plots were used to calculate Nagg at 1 mg/mL.
# [3] = UV-Vis turbidity, temperature-triggered LCST phase transition
# Protocol: We investigated the temperature-triggered phase-transition of each construct by recording the optical density of the protein solution at 350 nm as the temperature is ramped up and down on a temperature-controlled UV-Vis spectrophotometer (Cary 300 Bio, Varian Instruments, Palo Alto, Calif.) (FIG. 10-FIG. 12). The transition temperature (T) is defined as the inflection point of the turbidity profile and was calculated as the maximum of the first derivative of OD350 versus temperature, which was determined using Igor Pro software (FIG. 10). Turbidity profiles for each sample were measured in PBS at concentrations between 12.5 and 250 μM. For the non-myristoylated control sample, ELP90A,40, the transition temperatures at these concentrations were well above 80° C. Consequently, their […] values were monitored in 1 M NaCl, which served to reduce the T into a temperature range that is experimentally accessible.
# We next used UV-vis spectrophotometry to evaluate whether the lipid-ELP hybrid retained the LCST phase behavior of its parent ELP. The absorbance at 350 nm was monitored as the solution temperature was ramped up and then down at a rate of 1° C./min. […] The transition temperature (Tt) is defined as the inflection point of absorbance versus temperature, calculated as the maximum of the curve's first derivative (FIG. 2D, arrow).
# [4] = DLS kinetics study of self-assembly; conditions: 50 μM in PBS, room temperature, after filtering
# Protocol: Thus, we wanted to take more frequent light scattering measurements to track their changing size. Larger particles scatter more light, thus, we tracked intensity via DLS to monitor the size of the 40-mer M-ELPs' self-assembly.
# The 40-mer M-ELPs were prepared at 50 μM in PBS and filtered directly into the instrument's quartz cell. The instrument was pre-set to room temperature and, immediately after filtering, the sample was measured periodically over 24 h for both constructs and out to 1 week for M-ELP90A,40. While M-ELP90A,40 takes 144-168 h to reach equilibrium (FIG. 17A), M-ELP100V,40 appears to do so more quickly, by 24 h after filtering (FIG. 17B).
Molecule,morphology of self-assembled structure [1],Refractive Index Increment dn/dc [2] [cm^3 g^−1],"Hydrodynamic Radius, Day 0, Rh [2] [nm]",hydrodynamic radius (Rh) by DLS [2] [nm],Second Virial Coefficient A2 [2],"Shape Factor, ρ, Rg/Rh [2]","Aggregation Number, Nagg, MWparticle/Munimer [2]",suppression of Tt by myristoylation ([3]; versus unmyristoylated ELP) [°C],time to reach equilibrium of self-assembly [4] [h],"transition temperature (Tt) ([3]; PBS, 12.5 to 250 μM)"
"M-ELP90A,120: myristoylated ELP: Arf2 recognition sequence fused to 120 repeats of VPGXG, X 90% alanine and 10% valine (SEQ ID NO: 34) (conjugate, N-terminal myristoylation) MGLYASKLFSNLGAGVPGAGVPGVGVPGAGVPGAGVPGAGVPGAGVPGAGVPGAGVPGAGVPGAGVPGAGVPGVGVPGAGVPGAGVPGAGVPGAGVPGAGVPGAGVPGAGVPGAGVPGAGVPGVGVPGAGVPGAGVPGAGVPGAGVPGAGVPGAGVPGAGVPGAGVPGAGVPGVGVPGAGVPGAGVPGAGVPGAGVPGAGVPGAGVPGAGVPGAGVPGAGVPGVGVPGAGVPGAGVPGAGVPGAGVPGAGVPGAGVPGAGVPGAGVPGAGVPGVGVPGAGVPGAGVPGAGVPGAGVPGAGVPGAGVPGAGVPGAGVPGAGVPGVGVPGAGVPGAGVPGAGVPGAGVPGAGVPGAGVPGAGVPGAGVPGAGVPGVGVPGAGVPGAGVPGAGVPGAGVPGAGVPGAGVPGAGVPGAGVPGAGVPGVGVPGAGVPGAGVPGAGVPGAGVPGAGVPGAGVPGAGVPGAGVPGAGVPGVGVPGAGVPGAGVPGAGVPGAGVPGAGVPGAGVPGAGVPGAGVPGAGVPGVGVPGAGVPGAGVPGAGVPGAGVPGAGVPGAGVPGAGVPGAGVPGAGVPGVGVPGAGVPGAGVPGAGVPGAGVPGAGVPGAGVPGAGVPGY",spherical micelles,0.1515,22.7,~22,−9.23 × 10^−9 mol dm^3 g^−2,0.98,29,~20,–,–
"ELP90A,120: non-myristoylated control, recognition sequence-ELP grown without NMT (SEQ ID NO: 34) (protein) MGLYASKLFSNLGAGVPGAGVPGVGVPGAGVPGAGVPGAGVPGAGVPGAGVPGAGVPGAGVPGAGVPGAGVPGVGVPGAGVPGAGVPGAGVPGAGVPGAGVPGAGVPGAGVPGAGVPGAGVPGVGVPGAGVPGAGVPGAGVPGAGVPGAGVPGAGVPGAGVPGAGVPGAGVPGVGVPGAGVPGAGVPGAGVPGAGVPGAGVPGAGVPGAGVPGAGVPGAGVPGVGVPGAGVPGAGVPGAGVPGAGVPGAGVPGAGVPGAGVPGAGVPGAGVPGVGVPGAGVPGAGVPGAGVPGAGVPGAGVPGAGVPGAGVPGAGVPGAGVPGVGVPGAGVPGAGVPGAGVPGAGVPGAGVPGAGVPGAGVPGAGVPGAGVPGVGVPGAGVPGAGVPGAGVPGAGVPGAGVPGAGVPGAGVPGAGVPGAGVPGVGVPGAGVPGAGVPGAGVPGAGVPGAGVPGAGVPGAGVPGAGVPGAGVPGVGVPGAGVPGAGVPGAGVPGAGVPGAGVPGAGVPGAGVPGAGVPGAGVPGVGVPGAGVPGAGVPGAGVPGAGVPGAGVPGAGVPGAGVPGAGVPGAGVPGVGVPGAGVPGAGVPGAGVPGAGVPGAGVPGAGVPGAGVPGY",–,–,–,6.2,–,–,–,–,–,–
"M-ELP90A,80: myristoylated ELP, same composition (90% alanine, 10% valine), 80 pentapeptide repeats (SEQ ID NO: 35) (conjugate, N-terminal myristoylation) MGLYASKLFSNLGAGVPGAGVPGVGVPGAGVPGAGVPGAGVPGAGVPGAGVPGAGVPGAGVPGAGVPGAGVPGVGVPGAGVPGAGVPGAGVPGAGVPGAGVPGAGVPGAGVPGAGVPGAGVPGVGVPGAGVPGAGVPGAGVPGAGVPGAGVPGAGVPGAGVPGAGVPGAGVPGVGVPGAGVPGAGVPGAGVPGAGVPGAGVPGAGVPGAGVPGAGVPGAGVPGVGVPGAGVPGAGVPGAGVPGAGVPGAGVPGAGVPGAGVPGAGVPGAGVPGVGVPGAGVPGAGVPGAGVPGAGVPGAGVPGAGVPGAGVPGAGVPGAGVPGVGVPGAGVPGAGVPGAGVPGAGVPGAGVPGAGVPGAGVPGAGVPGAGVPGVGVPGAGVPGAGVPGAGVPGAGVPGAGVPGAGVPGAGVPG",spherical micelles,0.1660,31.2,–,−5.58 × 10^−9 mol dm^3 g^−2,1.00,48,–,–,–
"M-ELP100V,40: myristoylated ELP with 40 repeats of VPGXG where X is 100% valine (SEQ ID NO: 37) (conjugate, N-terminal myristoylation) MGLYASKLFSNLGVGVPGVGVPGVGVPGVGVPGVGVPGVGVPGVGVPGVGVPGVGVPGVGVPGVGVPGVGVPGVGVPGVGVPGVGVPGVGVPGVGVPGVGVPGVGVPGVGVPGVGVPGVGVPGVGVPGVGVPGVGVPGVGVPGVGVPGVGVPGVGVPGVGVPGVGVPGVGVPGVGVPGVGVPGVGVPGVGVPGVGVPGVGVPGVGVPGVGVPG",rod-like micelles,0.1258,80.3,–,–,1.30,201^b,–,≤ 24,–
"ELP90A,40: non-myristoylated control sample, 40 repeats (SEQ ID NO: 36) (protein) MGLYASKLFSNLGAGVPGAGVPGVGVPGAGVPGAGVPGAGVPGAGVPGAGVPGAGVPGAGVPGAGVPGAGVPGVGVPGAGVPGAGVPGAGVPGAGVPGAGVPGAGVPGAGVPGAGVPGAGVPGVGVPGAGVPGAGVPGAGVPGAGVPGAGVPGAGVPGAGVPGAGVPGAGVPGVGVPGAGVPGAGVPGAGVPGAGVPGAGVPGAGVPGAGVPG",–,–,–,–,–,–,–,–,–,above 80 °C
"M-ELP90A,40: myristoylated ELP, 90% alanine, 10% valine, 40 pentapeptide repeats (SEQ ID NO: 36) (conjugate, N-terminal myristoylation) MGLYASKLFSNLGAGVPGAGVPGVGVPGAGVPGAGVPGAGVPGAGVPGAGVPGAGVPGAGVPGAGVPGAGVPGVGVPGAGVPGAGVPGAGVPGAGVPGAGVPGAGVPGAGVPGAGVPGAGVPGVGVPGAGVPGAGVPGAGVPGAGVPGAGVPGAGVPGAGVPGAGVPGAGVPGVGVPGAGVPGAGVPGAGVPGAGVPGAGVPGAGVPGAGVPG",–,0.1669,81.9,–,−2.30 × 10^−8 mol dm^3 g^−2,1.29,137^b,–,144 to 168,–
